The record followed here is patent publication US11505811B2, “Method for the preparation of 2,4-dihydroxybutyrate” (ADISSEO FRANCE S.A.S., priority 2012, dated 2022).

Common to all, as to details: other: pH 7, 37° C., 0.25 mM NADH
Substrate in data set [1]: CC(=O)C(=O)O
Description: OHB/pyruvate reductase assay, Ll-Ldh wild type. The data set is classed as biochemical, Lactococcus lactis. From the text: (§1) The genes coding for (L)-malate dehydrogenase in Escherichia coli, Ec-mdh (SEQ ID NO: 1), (D)-lactate dehydrogenase in E. coli, Ec-ldhA (SEQ ID NO: 3), (L)-lactate dehydrogenase of Lactococcus lactis, Ll-ldhA (SEQ ID NO: 5), (L)-lactate dehydrogenase of Bacillus subtilis, Bs-ldh (SEQ ID NO: 7), (L)-lactate dehydrogenase of Geobacillus stearothermophilus, Gs-ldh (SEQ ID NO: 9), the two isoforms of the (L)-lactate dehydrogenase of Oryctalagus cuniculus, Oc-ldhA (SEQ ID NO: 11 and SEQ ID NO: 13), were amplified by PCR using the high-fidelity polymerase Phusion™ (Fermentas) and the primers listed in Table 1. Genomic DNAs of E. coli MG1655, L. lactis IL1403, and B. subtilis strain 168 were used as the template. The genes Oc-ldhA, and Gs-ldh were codon-optimized for expression in E. coli and synthesized by MWG Eurofins. The primers introduced restriction sites (Table 1) upstream of the start codon and downstream of the stop codon, respectively, facilitating the ligation of the digested PCR products into the corresponding sites of the pET28a+ (Novagen) expression vector using T4 DNA ligase (Fermentas). Ligation products were transformed into E. coli DH5a cells (NEB). […]

Substrate in data set [2]: CC(=O)C(=O)O
Description: OHB/pyruvate reductase assay, Ll-LdhA Q85N I226V. In kind it is biochemical, Lactococcus lactis. The procedure:
(§2) Enzymatic assays: The reaction mixture contained 60 mM Hepes (pH 7), 50 mM potassium chloride, 5 mM MgCl2, 0.25 mM NADH, (optionally 5 mM fructose-1,6-bisphosphate) (all products from Sigma), and appropriate amounts of purified malate or lactate dehydrogenase or cell extract. Reactions were started by adding appropriate amounts of 2-oxo-4-hydroxybutyrate (OHB), pyruvate, or oxaloacetate (OAA). Enzymatic assays were carried out at 37° C. in 96-well flat bottomed microtiter plates in a final volume of 250 μL. The reactions were followed by the characteristic absorption of NADH at 340 nm (εNADH=6.22 mM^−1 cm^−1) in a microplate reader (BioRad 680XR).
(§3) Site-directed mutagenesis of the L. lactis ldhA gene was carried out using the pET28-Ll-ldhA plasmid as the template. Point mutations to change the amino acid sequence were introduced by PCR (Phusion 1U, HF buffer 20% (v/v), dNTPs 0.2 mM, direct and reverse primers 0.04 μM each, template plasmid 30-50 ng, water) using the oligonucleotide pairs listed in Table 3. The genes mutated by PCR contained a new restriction site listed in Table 3 (introduced using silent mutations) in addition to the functional mutation to facilitate identification of mutated clones. The PCR products were digested by DpnI at 37° C. for 1 h to remove template DNA, and transformed into competent E. coli DH5α (NEB) cells. […]

Substrate in data set [3]: O=C(O)C(=O)CCO
Description: OHB/pyruvate reductase assay, Ll-LdhA Q85N I226V. In kind it is biochemical, Lactococcus lactis. The procedure:
as §2, §3

Substrate in data set [4]: CC(=O)C(=O)O
Description: OHB/pyruvate reductase assay, Ll-LdhA Q85N. The data set is classed as biochemical, Lactococcus lactis. The procedure:
as §2, §3

Substrate in data set [5]: O=C(O)C(=O)CCO
Description: OHB/pyruvate reductase assay, Ll-LdhA Q85N. In kind it is biochemical, Lactococcus lactis. The method, then: as §2, §3

Substrate in data set [6]: CC(=O)C(=O)O
Description: OHB/pyruvate reductase assay, Ec-LdhA. The data set is classed as biochemical, Escherichia coli.
Excerpt: as §1

Substrate in data set [7]: O=C(O)C(=O)CCO
Description: OHB/pyruvate reductase assay, Ec-LdhA. The data set is classed as biochemical, Escherichia coli.
Excerpt: as §1

Substrate in data set [8]: O=C(O)CC(=O)C(=O)O
Description: OHB/oxaloacetate reductase assay (NADH oxidation at 340 nm), Ec-Mdh wild type. The data set is classed as biochemical, Escherichia coli.
Excerpt: as §1

Substrate in data set [9]: O=C(O)C(=O)CCO
Description: OHB/oxaloacetate reductase assay, Ec-Mdh R81A M85Q I12V. The data set is classed as biochemical, Escherichia coli. The procedure:
as §2
Site-directed mutagenesis of the mdh gene from E. coli was carried out as described in Example 2 using the primers listed in Table 5. Plasmid pET28-Ec-mdh was used as the template.
Mutant enzymes were expressed, purified and tested for OHB and oxaloacetate reductase activity as described in Example 1. […] The mutation R81A in Ec-Mdh was combined with additional changes in the protein sequence.

Substrate in data set [10]: CC(=O)C(=O)O
Description: OHB/pyruvate reductase assay, Gs-Ldh. The data set is classed as biochemical, Geobacillus stearothermophilus.
Excerpt: as §1

Substrate in data set [11]: O=C(O)C(=O)CCO
Description: OHB/pyruvate reductase assay, Gs-Ldh. In kind it is biochemical, Geobacillus stearothermophilus.
Excerpt: as §1

B1: Lactococcus lactis (L)-lactate dehydrogenase Ll-LdhA (Ll-Ldh), wild type, SEQ ID NO: 6 (Lactococcus lactis subsp. lactis Il1403) (protein)
chain: MADKQRKKVILVGDGAVGSSYAFALVNQGIAQELGIVDLFKEKTQGDAEDLSHALAFTSPKKIYSADYSDASDADLVVLTSGAPQKPGETRLDLVEKNLRITKDVVTKIVASGFKGIFLVAANPVDILTYATWKFSGFPKNRVVGSGTSLDTARFRQALAEKVDVDARSIHAYIMGEHGDSEFAVWSHANVAGVKLEQWFQENDYLNEAEIVELFESVRDAAYSIIAKKGATFYGVAVALARITKAILDDEHAVLPVSVFQDGQYGVSDCYLGQPAVVGAEGVVNPIHIPLNDAEMQKMEASGAQLKAIIDEAFAKEEFASAVKN
With B1, in data set [1], the Km stood at 2700 µM.

B2: Lactococcus lactis (L)-lactate dehydrogenase A Ll-LdhA variant Q85N I226V (Q85NI226V), SEQ ID No. 32 (Lactococcus lactis subsp. lactis Il1403; I226V/Q85N) (protein)
chain: MADKQRKKVILVGDGAVGSSYAFALVNQGIAQELGIVDLFKEKTQGDAEDLSHALAFTSPKKIYSADYSDASDADLVVLTSGAPNKPGETRLDLVEKNLRITKDVVTKIVASGFKGIFLVAANPVDILTYATWKFSGFPKNRVVGSGTSLDTARFRQALAEKVDVDARSIHAYIMGEHGDSEFAVWSHANVAGVKLEQWFQENDYLNEAEIVELFESVRDAAYSIVAKKGATFYGVAVALARITKAILDDEHAVLPVSVFQDGQYGVSDCYLGQPAVVGAEGVVNPIHIPLNDAEMQKMEASGAQLKAIIDEAFAKEEFASAVKN
Consider B2, for which the Km was 1400 µM in data set [2] and 3300 µM in [3].

B3: Lactococcus lactis (L)-lactate dehydrogenase A Ll-LdhA variant Q85N, SEQ ID No. 30 (Lactococcus lactis subsp. lactis Il1403; Q85N) (protein)
chain: MADKQRKKVILVGDGAVGSSYAFALVNQGIAQELGIVDLFKEKTQGDAEDLSHALAFTSPKKIYSADYSDASDADLVVLTSGAPNKPGETRLDLVEKNLRITKDVVTKIVASGFKGIFLVAANPVDILTYATWKFSGFPKNRVVGSGTSLDTARFRQALAEKVDVDARSIHAYIMGEHGDSEFAVWSHANVAGVKLEQWFQENDYLNEAEIVELFESVRDAAYSIIAKKGATFYGVAVALARITKAILDDEHAVLPVSVFQDGQYGVSDCYLGQPAVVGAEGVVNPIHIPLNDAEMQKMEASGAQLKAIIDEAFAKEEFASAVKN
Regarding B3, the figures for the Km in data set [4] and in data set [5] were 22100 µM and 29200 µM, respectively.

B4: Escherichia coli (D)-lactate dehydrogenase Ec-LdhA, SEQ ID NO: 4 (Escherichia coli K-12) (protein)
chain: MKLAVYSTKQYDKKYLQQVNESFGFELEFFDFLLTEKTAKTANGCEAVCIFVNDDGSRPVLEELKKHGVKYIALRCAGFNNVDLDAAKELGLKVVRVPAYDPEAVAEHAIGMMMTLNRRIHRAYQRTRDANFSLEGLTGFTMYGKTAGVIGTGKIGVAMLRILKGFGMRLLAFDPYPSAAALELGVEYVDLPTLFSESDVISLHCPLTPENYHLLNEAAFEQMKNGVMIVNTSRGALIDSQAAIEALKNQKIGSLGMDVYENERDLFFEDKSNDVIQDDVFRRLSACHNVLFTGHQAFLTAEALTSISQTTLQNLSNLEKGETCPNELV
notes: made in house; host or cells: E. coli BL21 (DE3) star
On to B4, for which the Km came out at 1800 µM in [6] and 4800 µM in data set [7].

B5: Escherichia coli (L)-malate dehydrogenase Ec-Mdh, wild type, SEQ ID NO: 2 (Escherichia coli K-12) (protein)
chain: MKVAVLGAAGGIGQALALLLKTQLPSGSELSLYDIAPVTPGVAVDLSHIPTAVKIKGFSGEDATPALEGADVVLISAGVARKPGMDRSDLFNVNAGIVKNLVQQVAKTCPKACIGIITNPVNTTVAIAAEVLKKAGVYDKNKLFGVTTLDIIRSNTFVAELKGKQPGEVEVPVIGGHSGVTILPLLSQVPGVSFTEQEVADLTKRIQNAGTEVVEAKAGGGSATLSMGQAAARFGLSLVRALQGEQGVVECAYVEGDGQYARFFSQPLLLGKNGVEERKSIGTLSAFEQNALEGMLDTLKKDIALGEEFVNK
notes: as for B4
On to B5, for which the Km in data set [8] worked out at 40 µM.

B6: Escherichia coli malate dehydrogenase Ec-Mdh variant R81A M85Q I12V, SEQ ID No. 108 (Escherichia coli K-12; I12V/M85Q/R81A) (protein)
chain: MKVAVLGAAGGVGQALALLLKTQLPSGSELSLYDIAPVTPGVAVDLSHIPTAVKIKGFSGEDATPALEGADVVLISAGVAAKPGQDRSDLFNVNAGIVKNLVQQVAKTCPKACIGIITNPVNTTVAIAAEVLKKAGVYDKNKLFGVTTLDIIRSNTFVAELKGKQPGEVEVPVIGGHSGVTILPLLSQVPGVSFTEQEVADLTKRIQNAGTEVVEAKAGGGSATLSMGQAAARFGLSLVRALQGEQGVVECAYVEGDGQYARFFSQPLLLGKNGVEERKSIGTLSAFEQNALEGMLDTLKKDIALGEEFVNK
For the protein B6, the Km in data set [9] came out at 15000 µM.

B7: Geobacillus stearothermophilus (L)-lactate dehydrogenase Gs-Ldh, SEQ ID NO: 10 (Geobacillus stearothermophilus) (protein)
chain: MKNNGGARVVVIGAGFVGASYVFALMNQGIADEIVLIDANESKAIGDAMDFNHGKVFAPKPVDIWHGDYDDCRDADLVVICAGANQKPGETRLDLVDKNIAIFRSIVESVMASGFQGLFLVATNPVDILTYATWKFSGLPHERVIGSGTILDTARFRFLLGEYFSVAPQNVHAYIIGEHGDTELPVWSQAYIGVMPIRKLVESKGEEAQKDLERIFVNVRDAAYQIIEKKGATYYGIAMGLARVTRAILHNENAILTVSAYLDGLYGERDVYIGVPAVINRNGIREVIEIELNDDEKNRFHHSAATLKSVLARAFTR
notes: as for B4
Take B7: the Km in data set [10] was 1200 µM; in data set [11], 1300 µM.

Usually Km stands for the substrate concentration at which the rate is half of its maximum.
